Measured values as given in patent publication US20250145691A1 (University of Texas, published 2025).

How the values were obtained:
[1] = molecular target: T1, NTD (UniProt P0DTC2 14-303); test: ELISA and biolayer interferometry (BLI)
T1 construct: domain: NTD; also called N-terminal domain

[2] = molecular target: RBD (SARS-CoV-2, UniProt P0DTC2 319-591); test: ELISA and biolayer interferometry (BLI)

B1: antibody SC45 (antibody, V domains shown)
VH: QVQLQESGPGLVKSSETLSLTCTVSGGSISSYYWSWIRQPPGKGLEWIGCIYSSGSTNYNPSLKSRVTISVDSSKNQFSLRLNSVTAADTAVYYCARHKGTDFWSGYSFTPRGGWFDPWGQGALVSVSS
VL: DIQMTQSPSSLSASVGDRVTITCRASQSISSYLNWYQQKPGKAPKLLIYGASNLQSGVPSRFSGSGSETDFTLTISSLQPEDFASYYCQQSHSIPVTFGQGTKLEIK
binding result [1]: no binding
binding result [2]: no binding
